Measurements as given in patent US20090047272.

B1: wild-type human DNase I (protein)
chain: LKIAAFNIQTFGETKMSNATLVSYIVQILSRYDIALVQEVRDSHLTAVGKLLDNLNQDAPDTYHYVVSEPLGRNSYKERYLFVYRPDQVSAVDSYYYDDGCEPCGNDTFNREPAIVRFFSRFTEVREFAIVPLHAAPGDAVAEIDALYDVYLDVQEKWGLEDVMLMGDFNAGCSYVRPSQWSSIRLWTSPTFQWLIPDSADTTATPTHCAYDRIVVAGMLLRGAVVPDSALPFNFQAAYGLSDQLAQAISDHYPVEVMLK
B2: actin-resistant version of DNase I, arDNase (+1), substitution A114R (protein)
chain: LKIAAFNIQTFGETKMSNATLVSYIVQILSRYDIALVQEVRDSHLTAVGKLLDNLNQDAPDTYHYVVSEPLGRNSYKERYLFVYRPDQVSAVDSYYYDDGCEPCGNDTFNREPRIVRFFSRFTEVREFAIVPLHAAPGDAVAEIDALYDVYLDVQEKWGLEDVMLMGDFNAGCSYVRPSQWSSIRLWTSPTFQWLIPDSADTTATPTHCAYDRIVVAGMLLRGAVVPDSALPFNFQAAYGLSDQLAQAISDHYPVEVMLK

Biological target: G-actin in human serum

Protein | Average T50 (min) 50% DNA hydrolysis in human serum | Time T50 (min) 50% DNA hydrolysis in human serum
B1 | 28 min | 26; 28; 30
B2 | 3 min | 2; 3; 4
